{"source": "paper PMC10329019", "about": "“Membrane translocation process revealed by in situ structures of type II secretion system secretins” (Nature Communications, 2023)", "key": {"[1]": {"target": "the molecule itself", "assay": "cryo-EM structure; in situ cryo-ET subtomogram averaging of particles on the outer membrane of E. coli minicells overexpressing GspDβ and GspS; 514 particles, C15 symmetry, 19 Å; C5 refinement as a test of symmetry"}, "[2]": {"target": "the molecule itself", "assay": "cryo-EM structure; in situ cryo-ET subtomogram averaging of particles on the outer membrane of E. coli minicells overexpressing only GspDβ; 723 particles, C15 symmetry, 16 Å; C5 refinement as a test of symmetry"}, "[3]": {"target": "the molecule itself", "assay": "cryo-EM structure; in situ cryo-ET subtomogram averaging of GspDα particles on the inner membrane of E. coli BL21 (DE3) minicells; about 32,000 particles, C15 symmetry, 9 Å; particle radius histogram"}}}
{"protein": "GspDβ secretin (ETEC H10407 strain) with hexahistidine tag, from pETDuet-gspDβ-his-gspS, co-expressed with GspS (natural protein, UniProt E3PJ86 41-686, looked up, GspDβ, Vibrio-type type II secretion system secretin encoded in the T2SSβ operon, ETEC H10407 strain; Probably the same C-terminally tagged chain as m2 (surmised); also called Vibrio-type secretin; copies: 15) EEATFTANFKDTDLKSFIETVGANLNKTIIMGPGVQGKVSIRTMTPLNERQYYQLFLNLLEAQGYAVVPMENDVLKVVKSSAAKVEPLPLVGEGSDNYAGDEMVTKVVPVRNVSVRELAPILRQMIDSAGSGNVVNYDPSNVIMLTGRASVVERLTEVIQRVDHAGNRTEEVIPLDNASASEIARVLESLTKNSGENQPATLKSQIVADERTNSVIVSGDPATRDKMRRLIRRLDSEMERSGNSQVFYLKYSKAEDLVDVLKQVSGTLTAAKEEAEGTVGSGREIVSIAASKHSNALIVTAPQDIMQSLQSVIEQLDIRRAQVHVEALIVEVAEGSNINFGVQWASKDAGLMQFANGTQIPIGTLGAAISQAKPQKGSTVISENGATTINPDTNGDLSTLAQLLSGFSGTAVGVVKGDWMALVQAVKNDSSSNVLSTPSITTLDNQEAFFMVGQDVPVLTGSTVGSNNSNPFNTVERKKVGIMLKVTPQINEGNAVQMVIEQEVSKVEGQTSLDVVFGERKLKTTVLANDGELIVLGGLMDDQAGESVAKVPLLGDIPLIGNLFKSTADKKEKRNLMVFIRPTILRDGMAADGVSQRKYNYMRAEQIYRDEQGLSLMPHTAQPVLPAQNQALPPEVRAFLNAGRTR", "values": [{"measurement": "stoichiometry N", "setting": "[1]", "value": 15}]}
{"protein": "GspDβ secretin (ETEC H10407 strain) with C-terminal hexahistidine tag, from pETDuet-gspDβ-his, expressed alone (natural protein, UniProt E3PJ86 41-686, looked up, GspDβ, Vibrio-type type II secretion system secretin encoded in the T2SSβ operon, ETEC H10407 strain; The results name BL21(DE3) for this experiment, the methods name Rosetta (DE3) for cryo-ET imaging; also called Vibrio-type secretin; source: E. coli Rosetta (DE3) minicells (co-transformed with pBS58), pETDuet-gspDβ-his, overexpressed, imaged in the cells; copies: 15) EEATFTANFKDTDLKSFIETVGANLNKTIIMGPGVQGKVSIRTMTPLNERQYYQLFLNLLEAQGYAVVPMENDVLKVVKSSAAKVEPLPLVGEGSDNYAGDEMVTKVVPVRNVSVRELAPILRQMIDSAGSGNVVNYDPSNVIMLTGRASVVERLTEVIQRVDHAGNRTEEVIPLDNASASEIARVLESLTKNSGENQPATLKSQIVADERTNSVIVSGDPATRDKMRRLIRRLDSEMERSGNSQVFYLKYSKAEDLVDVLKQVSGTLTAAKEEAEGTVGSGREIVSIAASKHSNALIVTAPQDIMQSLQSVIEQLDIRRAQVHVEALIVEVAEGSNINFGVQWASKDAGLMQFANGTQIPIGTLGAAISQAKPQKGSTVISENGATTINPDTNGDLSTLAQLLSGFSGTAVGVVKGDWMALVQAVKNDSSSNVLSTPSITTLDNQEAFFMVGQDVPVLTGSTVGSNNSNPFNTVERKKVGIMLKVTPQINEGNAVQMVIEQEVSKVEGQTSLDVVFGERKLKTTVLANDGELIVLGGLMDDQAGESVAKVPLLGDIPLIGNLFKSTADKKEKRNLMVFIRPTILRDGMAADGVSQRKYNYMRAEQIYRDEQGLSLMPHTAQPVLPAQNQALPPEVRAFLNAGRTR", "values": [{"measurement": "stoichiometry N", "setting": "[2]", "value": 15}]}
{"protein": "GspDα secretin (E. coli K12 strain), no tag (natural protein, UniProt P45758 24-650, looked up, The untagged vector was used for cryo-ET imaging; the His-tagged one only for blots; also called Klebsiella-type secretin; GspDα multimer; copies: 15) ENEQYGANFNNADIRQFVEIVGQHLGKTILIDPSVQGTISVRSNDTFSQQEYYQFFLSILDLYGYSVITLDNGFLKVVRSANVKTSPGMIADSSRPGVGDELVTRIVPLENVPARDLAPLLRQMMDAGSVGNVVHYEPSNVLILTGRASTINKLIEVIKRVDVIGTEKQQIIHLEYASAEDLAEILNQLISESHGKSQMPALLSAKIVADKRTNSLIISGPEKARQRITSLLKSLDVEESEEGNTRVYYLKYAKATNLVEVLTGVSEKLKDEKGNARKPSSSGAMDNVAITADEQTNSLVITADQSVQEKLATVIARLDIRRAQVLVEAIIVEVQDGNGLNLGVQWANKNVGAQQFTNTGLPIFNAAQGVADYKKNGGITSANPAWDMFSAYNGMAAGFFNGDWGVLLTALASNNKNDILATPSIVTLDNKLASFNVGQDVPVLSGSQTTSGDNVFNTVERKTVGTKLKVTPQVNEGDAVLLEIEQEVSSVDSSSNSTLGPTFNTRTIQNAVLVKTGETVVLGGLLDDFSKEQVSKVPLLGDIPLVGQLFRYTSTERAKRNLMVFIRPTIIRDDDVYRSLSKEKYTRYRQEQQQRIDGKSKALVGSEDLPVLDENTFNSHAPAPSSR", "values": [{"measurement": "stoichiometry N", "setting": "[3]", "value": 15}]}
